Source: publication PMC10054347

Assays:
Chymotrypsin (CTRC) = Chymotrypsin (CTRC) (bovine (pancreas), UniProt P00766 1-245); assay: bead-based affinity chromatography, fluorescence; PBS pH 7.4, room temperature, 1 h; EMSA 500 nM oligo + 200 µM protein, 5% agarose; bead assay with bead-immobilized protein, Alexa488 oligo 1-60 nM (lysozyme) o
Lysozyme C = Lysozyme C (Gallus gallus (Chicken), UniProt P00698 19-147); assay: as above
Cytochrome c = Cytochrome c (equine (heart), UniProt P00004 2-105); assay: as above
Chain of Cytochrome c (P00004 2-105): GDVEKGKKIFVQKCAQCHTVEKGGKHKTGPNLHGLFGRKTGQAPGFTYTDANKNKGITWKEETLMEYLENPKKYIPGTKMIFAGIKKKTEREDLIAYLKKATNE

Chymotrypsin = Chymotrypsin (Bos taurus (Bovine), UniProt P00766;P00766;P00766 1-13;16-146;149-245); assay: pulldown; PBS pH 7.4, room temperature
BSA = BSA (Bos taurus (Bovine), UniProt P02769 25-607); assay: EMSA; PBS pH 7.4, room temperature
Chain of BSA (P02769 25-607): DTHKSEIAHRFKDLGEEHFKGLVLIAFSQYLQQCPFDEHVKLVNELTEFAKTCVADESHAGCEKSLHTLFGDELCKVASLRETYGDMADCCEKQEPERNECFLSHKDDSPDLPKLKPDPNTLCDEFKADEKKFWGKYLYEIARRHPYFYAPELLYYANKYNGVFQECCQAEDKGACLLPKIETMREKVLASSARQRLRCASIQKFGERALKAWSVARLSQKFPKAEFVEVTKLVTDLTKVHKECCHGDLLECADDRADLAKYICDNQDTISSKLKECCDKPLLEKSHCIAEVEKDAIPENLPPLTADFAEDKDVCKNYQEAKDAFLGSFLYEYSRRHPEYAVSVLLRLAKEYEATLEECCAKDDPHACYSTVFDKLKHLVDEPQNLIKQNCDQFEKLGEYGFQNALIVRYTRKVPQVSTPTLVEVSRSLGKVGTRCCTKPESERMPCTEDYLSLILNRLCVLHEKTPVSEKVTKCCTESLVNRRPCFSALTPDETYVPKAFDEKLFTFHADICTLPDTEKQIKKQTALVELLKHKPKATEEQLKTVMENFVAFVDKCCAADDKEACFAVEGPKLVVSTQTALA

Chain of Lysozyme C (P00698 19-147): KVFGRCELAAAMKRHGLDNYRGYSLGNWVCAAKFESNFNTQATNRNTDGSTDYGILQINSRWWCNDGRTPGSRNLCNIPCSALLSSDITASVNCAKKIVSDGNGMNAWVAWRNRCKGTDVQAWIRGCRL

B1: oligonucleotide 2, Alexa488 (ssDNA)
DNA: CGGTCCTCAGATGTGATTCCATCCTTCTTTTGAGCAAACTACCTGTATAACGTAAGTCCGTGTGTGCGAA
- Kd (Chymotrypsin (CTRC)): 3300 nM
- Kd (Lysozyme C): 8 nM
- Kd (Cytochrome c): 1100 nM

B2:  (ssDNA)
DNA: B1 DNA
- Kd (Chymotrypsin): 3300 nM
- binding result (BSA): no binding

Binder: ATAAATTTAAGACATGAAAAAATAAATTTTTATTTTTTTACGTTTTTATT (ssDNA) [oligonucleotide 1, Alexa488]
- Kd (Chymotrypsin (CTRC)): 1400 nM
- Kd (Lysozyme C): 14 nM
- Kd (Cytochrome c): 1400 nM

Binder: ATAAATTTAAGACATGAAAAAATAAATTTTTATTTTTTTACGTTTTTATT (ssDNA)
- Kd (Chymotrypsin): 1400 nM
- binding result (BSA): no binding
